Target: collagen model peptide Ac-(PPG)2PTGPRG(PPG)2-NH2
Assay: crystal structure; HSP47 H273N/H274N with Ac-(PPG)2PTGPRG(PPG)2-NH2, space group P2_(1); crystallization conditions not told

“HSP47 double-mutant H273N/H274N (natural protein)” showed a stoichiometry N (HSP47 per collagen triple helix) of 2.

Source: article PMC8626583, “Collagen’s primary structure determines collagen:HSP47 complex stoichiometry” (The Journal of Biological Chemistry, 2021)
